Results as given in patent US20160280792A1 (Kyowa Kirin, published 2016).

Tests used:
Test in all cases: flow cytometry, labelled antibody at 1 µg/ml, HEK293T cells expressing the construct
[1] = target: T1, IL-3Rα/GM-CSFRα chimeric protein, region 7 (192-GIPCTDK-198) of IL-3Rα replaced by GM-CSFRα sequence, on … (human, UniProt P26951 19-378)
T1 construct: also called Region 7 (B)
T1 chain: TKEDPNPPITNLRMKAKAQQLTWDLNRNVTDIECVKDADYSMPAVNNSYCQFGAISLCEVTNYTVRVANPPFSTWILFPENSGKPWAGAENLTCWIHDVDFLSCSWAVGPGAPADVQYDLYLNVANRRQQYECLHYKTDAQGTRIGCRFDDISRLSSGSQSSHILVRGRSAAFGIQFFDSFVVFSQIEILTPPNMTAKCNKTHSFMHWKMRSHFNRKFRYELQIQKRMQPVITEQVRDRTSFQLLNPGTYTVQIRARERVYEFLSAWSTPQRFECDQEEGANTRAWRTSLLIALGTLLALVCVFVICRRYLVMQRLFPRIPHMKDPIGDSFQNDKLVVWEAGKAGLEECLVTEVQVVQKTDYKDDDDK

[2] = target: T2, IL-3Rα/GM-CSFRα chimeric protein, region 3 (91-STWILFPE-98) of IL-3Rα replaced by GM-CSFRα sequence, on … (human, UniProt P26951 19-378)
T2 construct: also called Region 3 (A)
T2 chain: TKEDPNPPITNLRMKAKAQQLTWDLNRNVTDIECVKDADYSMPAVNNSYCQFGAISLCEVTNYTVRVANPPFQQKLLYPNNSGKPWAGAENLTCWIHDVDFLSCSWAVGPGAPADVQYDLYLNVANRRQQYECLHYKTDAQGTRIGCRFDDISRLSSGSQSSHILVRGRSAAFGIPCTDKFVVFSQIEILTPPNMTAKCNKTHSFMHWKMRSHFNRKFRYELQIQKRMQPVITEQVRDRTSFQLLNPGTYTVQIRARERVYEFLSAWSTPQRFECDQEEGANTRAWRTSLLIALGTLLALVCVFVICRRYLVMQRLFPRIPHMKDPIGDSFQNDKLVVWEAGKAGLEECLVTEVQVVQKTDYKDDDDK

[3] = target: T3, IL-3Rα/GM-CSFRα chimeric protein, region 6 (182-ILVRGRS-188) of IL-3Rα replaced by GM-CSFRα sequence, on … (human, UniProt P26951 19-378)
T3 construct: also called Region 6 (B)
T3 chain: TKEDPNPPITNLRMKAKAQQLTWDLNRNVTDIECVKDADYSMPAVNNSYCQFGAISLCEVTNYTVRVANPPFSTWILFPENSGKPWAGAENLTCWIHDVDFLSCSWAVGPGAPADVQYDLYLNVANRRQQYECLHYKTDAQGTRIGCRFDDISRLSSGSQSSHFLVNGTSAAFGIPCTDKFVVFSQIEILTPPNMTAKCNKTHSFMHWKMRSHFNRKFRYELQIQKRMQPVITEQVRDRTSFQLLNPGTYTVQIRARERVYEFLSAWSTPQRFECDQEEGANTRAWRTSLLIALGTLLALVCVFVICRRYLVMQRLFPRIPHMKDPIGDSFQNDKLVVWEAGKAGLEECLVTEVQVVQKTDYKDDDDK

[4] = target: T4, IL-3Rα/GM-CSFRα chimeric protein, region 4 (97-…-104) of IL-3Rα replaced by GM-CSFRα sequence, on HEK293T … (human, UniProt P26951 19-378)
T4 construct: also called Region 4 (A-B)
T4 chain: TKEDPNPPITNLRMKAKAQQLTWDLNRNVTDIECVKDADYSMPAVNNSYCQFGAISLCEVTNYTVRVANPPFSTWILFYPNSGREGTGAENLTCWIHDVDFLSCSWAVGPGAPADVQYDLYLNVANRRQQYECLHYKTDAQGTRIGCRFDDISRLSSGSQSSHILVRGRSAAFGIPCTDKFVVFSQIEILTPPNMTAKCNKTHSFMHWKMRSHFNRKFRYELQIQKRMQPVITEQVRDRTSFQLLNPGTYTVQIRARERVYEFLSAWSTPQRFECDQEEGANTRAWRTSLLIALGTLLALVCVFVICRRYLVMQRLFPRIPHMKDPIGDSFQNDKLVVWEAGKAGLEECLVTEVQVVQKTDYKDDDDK

- binding result [1]: no binding (tested: 1 µg/ml)
- binding result [2]: no binding (tested: 1 µg/ml)
- binding result [3]: no binding (tested: 1 µg/ml)
- binding result [4]: no binding (tested: 1 µg/ml)
B1: Old19 anti-human IL-3Rα human antibody (antibody, human IgG1, V domains shown)
VH: QVQLVQSGAEVKKPGSSVKVSCKASGGTFSSYAISWVRQAPGQGLEWVGGIIPIFGTANYAQKFQGRVTITADESTSTAYMELSSLRSEDTAVYYCARGHKYGPYYFDYWGQGTLVTVSS
VL: DIQMTQSPSSLSASVGDRVTITCRASQGISSWLAWYQQKPEKAPKSLIYAASSLQSGVPSRFSGSGSGTDFTLTISSLQPEDFATYYCQQYNSYPRTFGQGTKVEIK
notes: Human antibody; recombinant form in N5KG1-Val Lark vector (human IgG1, kappa)
